Measured values as given in US11795460B2, “Compositions and methods for TTR gene editing and treating ATTR amyloidosis” (Intellia Therapeutics, Inc., priority 2017, dated 2023).
Strand notation (5' to 3'): a small letter for the sugar, then the base; units joined by * are phosphorothioate-linked, units joined directly phosphodiester-linked; [ ] holds rarer units or linkages, { } end groups; capitals alone tell only the bases. m = 2'-O-methyl; r = 2'-OH (RNA)

Experiments:
TTR [1] = test: TTR editing in primary human hepatocytes treated with LNP formulated Spy Cas9 mRNA (SEQ ID NO: 2) and sgRNAs (Table 16); assay type: cell-based; settings: LNP formulated Spy Cas9 mRNA (SEQ ID NO: 2) and sgRNA, 72 hours
Experimental: Primary liver hepatocytes. Primary human liver hepatocytes (PHH) and primary cynomolgus liver hepatocytes (PCH) (Gibco) were cultured per the manufacturer's protocol (Invitrogen, protocol 11.28.2012). In brief, the cells were thawed and resuspended in hepatocyte thawing medium with supplements (Gibco, Cat. CM7000) followed by centrifugation at 100 g for 10 minutes for human and 80 g for 4 minutes for cyno. The supernatant was discarded and the pelleted cells resuspended in hepatocyte plating medium plus supplement pack (Invitrogen, Cat. A1217601 and CM3000). Cells were counted and plated on Bio-coat collagen I coated 96-well plates (ThermoFisher, Cat. 877272) at a density of 33,000 cells/well for human or 60,000 cells/well for cyno (or 65,000 cells/well when assaying effects on TTR protein, described further below). Plated cells were allowed to settle and adhere for 6 or 24 hours in a tissue culture incubator at 37° C. and 5% CO2 atmosphere. After incubation cells were checked for monolayer formation and media was replaced with hepatocyte culture medium with serum-free supplement pack (Invitrogen, Cat. A1217601 and CM4000).
In general, the lipid nanoparticle components were dissolved in 100% ethanol with the lipid component of various molar ratios. The RNA cargos were dissolved in 25 mM citrate, 100 mM NaCl, pH 5.0, resulting in a concentration of RNA cargo of approximately 0.45 mg/mL. The LNPs were formulated with a lipid amine to RNA phosphate (N:P) molar ratio of about 4.5 or about 6, with the ratio of mRNA to gRNA at 1:1 by weight.
The LNPs were formed by microfluidic mixing of the lipid and RNA solutions using a Precision Nanosystems NanoAssemblr™ Benchtop Instrument, according to the manufacturer's protocol. A 2:1 ratio of aqueous to organic solvent was maintained during mixing using differential flow rates. After mixing, the LNPs were collected, diluted in water (approximately 1:1 v/v), held for 1 hour at room temperature, and further diluted with water (approximately 1:1 v/v) before final buffer exchange. The final buffer exchange into 50 mM Tris, 45 mM NaCl, 5% (w/v) sucrose, pH 7.5 (TSS) was completed with PD-10 desalting columns (GE). If required, formulations were concentrated by centrifugation with Amicon 100 kDa centrifugal filters (Millipore). The resulting mixture was then filtered using a 0.2 μm sterile filter. The final LNP was stored at −80° C. until further use.
To quantitatively determine the efficiency of editing at the target location in the genome, sequencing was utilized to identify the presence of insertions and deletions introduced by gene editing.
Primers were designed around the target site within the gene of interest (e.g. TTR), and the genomic area of interest was amplified.
Additional PCR was performed per the manufacturer's protocols (Illumina) to add chemistry for sequencing. The amplicons were sequenced on an Illumina MiSeq instrument. The reads were aligned to a reference genome (e.g., the human reference genome (hg38), the cynomologus reference genome (mf5), the rat reference genome (rn6), or the mouse reference genome (mm10)) after eliminating those having low quality scores. The resulting files containing the reads were mapped to the reference genome (BAM files), where reads that overlapped the target region of interest were selected and the number of wild type reads versus the number of reads which contain an insertion, substitution, or deletion was calculated.
The editing percentage (e.g., the “editing efficiency” or “percent editing” or “indel frequency”) is defined as the total number of sequence reads with insertions/deletions (“indels”) or substitutions over the total number of sequence reads, including wild type.
Lipid nanoparticle formulations of modified sgRNAs targeting human TTR and the cyno matched sgRNA sequences were tested on primary human hepatocytes and primary cyno hepatocytes in a dose response curve. Primary human and cyno hepatocytes were plated as described in Example 1. […]

[2] = test system: off-target integration sites; test: Off-target oligo insertion based assay in primary human hepatocytes (Table 30); assay type: cell-based; settings: TTR sgRNAs in PHH, 100 ng Cas9 mRNA, 25 nM sgRNA, 12.5 nM donor oligo
Experimental: Off-target analysis of sgRNAs targeting TTR was performed in primary human hepatocytes (PHH) as described in Example 5, with the following modifications. PHH were plated at a density of 33,000 cells per well on collagen-coated 96-well plates as described in Example 1. Twenty-four hours post plating, cells were washed with media and transfected using Lipofectamine RNAiMAX (ThermoFisher, Cat. 13778150) as described in Example 1. Cells were transfected with a lipoplex containing 100 ng Cas9 mRNA, immediately followed by the addition of another lipoplex containing 25 nM of the sgRNA and 12.5 nM of the donor oligo (0.3 μL/well). Cells were lysed 48 hours post-transfection and gDNA was extracted and analyzed as further described in Example 5. The data is graphically represented in FIG. 20.
Fewer sites were detected in PHH for every guide tested as compared to the HekCas9 cell line, with no unique sites detected in PHH alone.

TTR [3] = test: TTR editing in primary cyno hepatocytes treated with LNP formulated Spy Cas9 mRNA (SEQ ID NO: 2) and sgRNAs (Tables 17, 18); assay type: cell-based, cynomolgus monkey; settings: Table 17, LNP formulated Spy Cas9 mRNA (SEQ ID NO: 2) and sgRNA, 12.5 ng mRNA, 3.9 nM sgRNA, 72 hours
Outline: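 Primary cynomolgus hepatocytes, 24 h after plating, dosed with LNPs (N:P about 4.5 or 6, mRNA:gRNA 1:1 by weight) pre-incubated 5 min at 37° C. in medium with 6% cyno serum, in an 8-point 2-fold dose response. Editing = indel/substitution reads over total reads by amplicon MiSeq sequencing.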

Row | Molecule | 12.5 ng mRNA, 3.9 nM sgRNA Avg % Edit (TTR [1]) | # Sites in PHH [2] | 12.5 ng mRNA, 3.9 nM sgRNA Avg % Edit (TTR [3])
1 | G000567: TTR sgRNA modified sequence, Human, SEQ ID No. 109; guide sequence of CR003352 (nucleic acid) guide: mG*mA*mA*rArGrGrCrUrGrCrUrGrArUrGrArCrArCrCrGrUrUrUrUrArGrAmGmCmUmAmGmAmAmAmUmAmGmCrArArGrUrUrArArArArUrArArGrGrCrUrArGrUrCrCrGrUrUrArUrCrAmAmCmUmUmGmAmAmAmAmAmGmUmGmGmCmAmCmCmGmAmGmUmCmGmGmUmGmCmU*mU*mU*mU | 48.95% | 0 | 0.10%
2 | G000568: TTR sgRNA modified sequence, Human, SEQ ID No. 110; guide sequence of CR003391 (nucleic acid) guide: mG*mG*mC*rUrGrUrCrGrUrCrArCrCrArArUrCrCrCrArGrUrUrUrUrArGrAmGmCmUmAmGmAmAmAmUmAmGmCrArArGrUrUrArArArArUrArArGrGrCrUrArGrUrCrCrGrUrUrArUrCrAmAmCmUmUmGmAmAmAmAmAmGmUmGmGmCmAmCmCmGmAmGmUmCmGmGmUmGmCmU*mU*mU*mU | 54.60% | 11 | 9.25%
3 | G000501: TTR sgRNA modified sequence, Human, SEQ ID No. 108; guide sequence of CR005300 (nucleic acid) guide: mU*mC*mA*rCrArGrArArArCrArCrUrCrArCrCrGrUrArGrUrUrUrUrArGrAmGmCmUmAmGmAmAmAmUmAmGmCrArArGrUrUrArArArArUrArArGrGrCrUrArGrUrCrCrGrUrUrArUrCrAmAmCmUmUmGmAmAmAmAmAmGmUmGmGmCmAmCmCmGmAmGmUmCmGmGmUmGmCmU*mU*mU*mU | 32.30% | 0 | 1.37%
4 | G000572: TTR sgRNA modified sequence, Human, SEQ ID No. 113; guide sequence of CR003385 (nucleic acid) guide: mC*mC*mC*rCrUrArCrUrCrCrUrArUrUrCrCrArCrCrArGrUrUrUrUrArGrAmGmCmUmAmGmAmAmAmUmAmGmCrArArGrUrUrArArArArUrArArGrGrCrUrArGrUrCrCrGrUrUrArUrCrAmAmCmUmUmGmAmAmAmAmAmGmUmGmGmCmAmCmCmGmAmGmUmCmGmGmUmGmCmU*mU*mU*mU | 55.45% | 2 | 30.60%
5 | G000570: TTR sgRNA modified sequence, Human, SEQ ID No. 111; guide sequence of CR003347 (nucleic acid) guide: mC*mA*mU*rUrGrArUrGrGrCrArGrGrArCrUrGrCrCrUrGrUrUrUrUrArGrAmGmCmUmAmGmAmAmAmUmAmGmCrArArGrUrUrArArArArUrArArGrGrCrUrArGrUrCrCrGrUrUrArUrCrAmAmCmUmUmGmAmAmAmAmAmGmUmGmGmCmAmCmCmGmAmGmUmCmGmGmUmGmCmU*mU*mU*mU | 88.30% | 1 | 17.30%
